From patent US20260234276A1 (DOMAIN THERAPEUTICS, published 2026)
“And” between values parts separate entries of the source, which are not always exact repeats. Equal entries are not always repeated.

Assays:
[1] = target: T1, human CCR8 (human, UniProt P51685 1-355); assay: cell-based or functional assay
[2] = target: T1, human CCR8; assay: cell-based or functional assay; remark: listed apart in the source
[3] = target: pm5 (human, sulfated tyrosines at Y15 and Y17); assay: ELISA on coated peptide [cont.]
Chain of pm5 (human, sulfated tyrosines at Y15 and Y17) (peptide, as listed by the source): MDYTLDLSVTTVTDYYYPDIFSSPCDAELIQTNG
Experimental: (§1) The specific binding properties of antibodies were evaluated by ELISA with coated CCR8 related peptides (500 ng/mL) in carbonate/bicarbonate buffer. Different peptides were used as described in Table 1 (see Example 1). Each anti-CCR8 mAb was tested at 1 μg/mL then diluted at 1/10. After an incubation at room temperature during 90 min, unbound mAbs were removed by washings. […] After washings, 3,3′,5,5′-tetramethylbenzidine (TMB) (Interchim, Montlugon, France) was added for 15 min. Then the optical density (OD) was determined by using a multiplate reader (Tecan, Lyon, France) and correlated with mAb reactivity on the panel of coated peptides.

[4] = target: pm6 (human, sulfated tyrosines at Y16 and Y17); assay: ELISA on coated peptide [cont.]
Chain of pm6 (human, sulfated tyrosines at Y16 and Y17) (peptide, as listed by the source): as above
Experimental: as §1

[5] = target: pm8 (human, sulfated tyrosines at Y15, Y16 and Y17); assay: ELISA on coated peptide [cont.]
Chain of pm8 (human, sulfated tyrosines at Y15, Y16 and Y17) (peptide, as listed by the source): as above
Experimental: as §1

[6] = target: pm3 (human, sulfated tyrosine at Y17); assay: ELISA on coated peptide [cont.]
Chain of pm3 (human, sulfated tyrosine at Y17) (peptide, as listed by the source): as above
Experimental: as §1

[7] = target: T1, human CCR8; assay: flow cytometry, hCCR8 transfected CHOK1 cells
Experimental: Briefly, 1·10⁵ cells per well in a 96 well plate were incubated with a dilution of unconjugated anti-CCR8 mAb at 10 μg/mL then diluted at 1/3.33, 4 dilution points (during 30 min at 4° C.). […] To determine EC50 value, 8 concentrations of anti-CCR8 mAb were tested. Unbound antibodies were washed away with PBS (Invitrogen by Thermofisher Scientific, Illkirch-Graffenstaden, France) supplemented by 2% Fetal Bovine Serum (Invitrogen by Thermofisher Scientific, Illkirch-Graffenstaden, France) and 2 mM EDTA (Invitrogen by Thermofisher Scientific, Illkirch-Graffenstaden, France). Subsequently, cells are centrifuged (5 min at 400 g) and bound antibody is detected with F(ab′)₂-Goat anti-Mouse IgG (H+L) Cross-Adsorbed Secondary Antibody, Alexa Fluor 488 (dilution 1/500) (Invitrogen by Thermofisher Scientific, Illkirch-Graffenstaden, France) or with F(ab′)₂-Goat anti-Human IgG Fc Secondary Antibody, PE (Invitrogen by Thermofisher Scientific, Illkirch-Graffenstaden, France) (dilution 1/1000) at 4° C. for 30 min. Detection reagent is washed away and cells are centrifuged (5 min at 400 g) and resuspended in 30 μL PBS. Bound detection antibody is quantified on a MacsQuant16 (Miltenyi, Gladbach, Germany) (B1 or B2 channel, 5000 events per acquisition).

Row | Binder | IC50 (Gi2 BRET, pH 6.5) [1] | IC50 (Gi2 BRET, pH 7.4) [1] | hCCL1 (100 nM) residual response, Protocol #2, mAb 0.08 µg/mL [2] | hCCL1 (100 nM) residual response, Protocol #2, mAb 0.4 µg/mL [2] | hCCL1 (100 nM) residual response, Protocol #2, mAb 10 µg/mL [2] | hCCL1 (100 nM) residual response, Protocol #3, mAb 0.05 µg/mL [2] | hCCL1 (100 nM) residual response, Protocol #3, mAb 0.5 µg/mL [2] | hCCL1 (100 nM) residual response, Protocol #3, mAb 5 µg/mL [2] | binding result [3] | binding result [4] | binding result [5] | binding result [6] | % positive cells [7] | MFI fold change to isotype ctrl [7]
1 | 3-29 (antibody, V domains shown) VH: QVHLVETGGGLVRPGNSLKLSCVTSGFTLSNYRMHWLRQPPGKRLEWIAVIKVKSDNYGANYAESVKGRFTISRDDAKSSVYLQMNRLREEDTATYYCSRPDGFSPFVYWGQGTLVTVSA VL: DIKMTQSPSSMYASLGERVTITCKASQDINSYLSWFQQKPGKSPKTLIYRANRLVDGVPSRFSGSGSGQDYFLTISSLEYEDMGIYYCLQYGEFPPTFGAGTKLELK | 0.011 µg/ml and 0.073 nM | 0.007 µg/ml and 0.047 nM | 73% | 51% | 24% | 69% | 38% | 30% | binds | binds | binds | binds | 71.3% | 6.26 fold
2 | 3-28 (antibody, V domains shown) VH: EVQLQQSGPELLKPGTSVKISCTTSGYTFSDYTLHWVKQSHGKSLEWIGGITPKNGDTRYDPRFKDKATLTIDKSSSAAYMELRSLTSEDSAVYYCARVARFYGVSPYAMDYWGQGASVTVSS VL: DVVMTQTPLSLPVSLGDQASISCRCTQSLLHSNGDTYLHWYLQKPGQSPKLLIYKVSNRFSGVPDRFSGSGSGTDFTLEITRVEAEDLGVYFCSQTTHVPYTFGGGTKLEIK | 0.044 µg/ml and 0.292 nM | 0.061 µg/ml and 0.405 nM | 79% | 38% | 17% | 102% | 64% | 47% | binds | binds | binds | binds | 81.1% | 10.7 fold
3 | 3-11 (antibody, V domains shown) VH: EVQLVESGGGLVQPKGSLKLSCAASGFTFNTYAMNWVRQAPGKGLEWVARIRSKSNNYATYYADSVKDRFTISRDDSQSMLYLQMNNLKTEDTAMYYCVRGREAYYRYDGGYYAMDYWGQGTSVTVSS VL: DIVMTQAAPSVPVTPGESVSISCRSSKSLLHSNGNTYLYWFLQRPGQSPQLLIYRMSNLASGVPDRFSGSGSGTAFTLRISRVEAEDVGVYYCMQHLEYPFTFGSGTKLEIK | 0.03 µg/ml and 0.198 nM | 0.031 µg/ml and 0.21 nM | 60% | 36% | 19% | 74% | 68% | 48% | binds | binds | binds | binds | 90.6% | 22.7 fold
4 | 3-30 (antibody, V domains shown) VH: EVQLVESGGGLVQPKGSLRLSCAASGFTFNAYAMNWVRQAPGKGLEWVARIRSKSNNYATYYGDSVKDRFTISRDDSQTMLYLQMNNLKTEDTAMYYCVRGREAYYRYDGDYYAMDYWGQGTSVTVSS VL: not shown | 0.053 µg/ml and 0.355 nM | 0.063 µg/ml and 0.421 nM | 70% | 44% | 51% | 78% | 55% | 43% | binds | binds | binds | binds | 68.5% | 5.12 fold
5 | 3-14 (antibody, V domains shown) VH: EVQLVESGGGLVQPTGSLRLSCAASGFTFNAYAMNWVRQAPGKGLEWVARIRSKSNDYATYYGDSVKDRFTISRDDSQSMLYLQMNNLKTEDTAMYYCVRGREAYYRYDGGYYAMDYWGQGTSVTVSS VL: DIVMTQAAPSVSVTPGESVSISCTSSKSLLHSNGNTYLYWFLQRPGQSPQLLIYRMSNLASGVPDRFSGSGSGTAFTLRISRVEAEDVGVYYCMQHREYPFTFGSGTKLEIK | 0.034 µg/ml and 0.225 nM | 0.065 µg/ml and 0.434 nM | 72% | 49% | 28% | 75% | 36% | 22% | binds | binds | binds | binds | 66.8% | 5.06 fold

The remaining lines, values ahead:

Row | IC50 (Gi2 BRET, pH 6.5) [1] | IC50 (Gi2 BRET, pH 7.4) [1] | hCCL1 (100 nM) residual response, Protocol #2, mAb 0.08 µg/mL [2] | hCCL1 (100 nM) residual response, Protocol #2, mAb 0.4 µg/mL [2] | hCCL1 (100 nM) residual response, Protocol #2, mAb 10 µg/mL [2] | hCCL1 (100 nM) residual response, Protocol #3, mAb 0.05 µg/mL [2] | hCCL1 (100 nM) residual response, Protocol #3, mAb 0.5 µg/mL [2] | hCCL1 (100 nM) residual response, Protocol #3, mAb 5 µg/mL [2] | binding result [3] | binding result [4] | binding result [5] | binding result [6] | % positive cells [7] | MFI fold change to isotype ctrl [7] | Binder
6 | 0.014 µg/ml and 0.095 nM | 0.004 µg/ml and 0.026 nM | 93% | 89% | 48% | 92% | 68% | 50% | binds | binds | binds | binds | 83% | 17.6 fold | 3-48 (antibody, V domains shown) VH: QVQLVETGGGLVRPGNSLKLSCVTSGFTFSNYRMHWLRQPPGKRLEWIAVIKVKSDNYGANYAESVKGRFTISRDDSKSSVYLQVNRLREEDTATYYCSSPTYPGSSGFAYWGQGTLVTVSA VL: DIQMTQTTSSLSASLGDRVTISCRASQDISNYLNWYQQKPDGTVKLLIYYTSRLHSGVPSRFSGSGSGTDYSLTISNLEQEDIATYFCQQGNKFPPTFGGGTKLEIN
7 | 0.031 µg/ml and 0.208 nM | 0.017 µg/ml and 0.115 nM | 99% | 85% | 68% | 86% | 75% | 48% | binds | binds | binds | binds | 67.8% | 6.11 fold | 3-45 (antibody, V domains shown) VH: EVQLVETGGGLVQPKGSLKLSCAASGFTFNANAMNWVRQAPGKGLEWVARIRSKSNNYATYYADSVKDRFTISRDDSQSMLYLQMNNLKTEDTAMYYCVRGSDNYIFYAMDYWGQGTSVTVSS VL: DIVMTQAAPSVPVTPGESVSISCRSSKSLLHSNGNTYLYWFLQRPGQSPQLLIYRMSNLASGVPDRFSGSGSGTAFTLRISRVEAEDVGVYYCMQHLEYPFTFGGGTKLEIK
8 | 0.071 µg/ml and 0.476 nM | 0.089 µg/ml and 0.596 nM | 88% | 57% | 46% | 73% | 36% | 36% | binds | binds | binds | binds | 81.8% | 16.2 fold | 3-32 (antibody, V domains shown) VH: EVQLVESGGGLVQPKGSLKLSCAASGFTFNAYAMNWVRQAPGKGLEWLARIRSKSNNYATYYADSVKDRFTISRDDSQSMFYLQMNNLKSEDTAMYYCVRGREAYYRYDGGYYAMDYWGQGTSVTVSS VL: EIVMTQAALSAPVTPGESVSMSCRSSKSLLHSNGNTYLYWFLQRPGQSPQLLIYRMSNLASGVPDRFSGSGSGTAFTLRISRVEAEDVGVYYCMQHLEYPFTFGSGTKLEIK
